Like-named read-outs stand apart in the source and are kept apart here.
Columns and labels:
[1] = molecular target: T1, RhamD from Azotobacter vinlandii (Azotobacter vinelandii, UniProt C1DMY1); experiment: dehydration activity; format: biochemical; conditions: kinetic data not shown
T1 sequence (C1DMY1 1-394): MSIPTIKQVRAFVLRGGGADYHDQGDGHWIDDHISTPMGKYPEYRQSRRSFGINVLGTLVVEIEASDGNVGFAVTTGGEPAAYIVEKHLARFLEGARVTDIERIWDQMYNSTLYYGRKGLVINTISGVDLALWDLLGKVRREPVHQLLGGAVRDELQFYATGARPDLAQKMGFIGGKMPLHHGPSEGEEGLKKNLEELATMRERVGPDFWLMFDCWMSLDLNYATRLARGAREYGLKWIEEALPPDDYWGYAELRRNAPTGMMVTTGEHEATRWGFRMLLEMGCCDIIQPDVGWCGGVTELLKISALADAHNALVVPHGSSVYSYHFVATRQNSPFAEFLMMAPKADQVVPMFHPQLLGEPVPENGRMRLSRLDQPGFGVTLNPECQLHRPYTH

[2] = molecular target: RhamD from Gibberella zeae (Fusarium graminearum, UniProt D0VX14); conditions: kinetic data not shown
Chain of RhamD from Gibberella zeae (D0VX14 1-450): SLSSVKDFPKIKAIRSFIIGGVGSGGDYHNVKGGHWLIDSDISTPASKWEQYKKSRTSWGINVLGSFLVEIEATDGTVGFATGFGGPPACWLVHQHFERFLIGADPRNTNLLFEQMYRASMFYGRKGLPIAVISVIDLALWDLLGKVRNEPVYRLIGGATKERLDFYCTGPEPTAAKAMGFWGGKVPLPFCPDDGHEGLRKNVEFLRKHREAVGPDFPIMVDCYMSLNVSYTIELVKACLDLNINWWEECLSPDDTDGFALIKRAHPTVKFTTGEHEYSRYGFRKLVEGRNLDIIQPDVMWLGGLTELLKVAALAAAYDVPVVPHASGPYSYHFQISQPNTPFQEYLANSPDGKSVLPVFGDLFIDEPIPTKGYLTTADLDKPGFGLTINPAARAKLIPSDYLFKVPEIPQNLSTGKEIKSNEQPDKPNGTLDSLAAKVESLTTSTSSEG

[3] = substrate: C[C@H](O)[C@H](O)[C@@H](O)[C@@H](O)C(=O)O; experiment: dehydration; format: biochemical, Escherichia coli; conditions: 5 mM MgCl2, Tris-HCl pH 7.9 or K-Hepes pH 7.5, 25 °C
[4] = substrate: O=C(O)[C@H](O)[C@H](O)[C@@H](O)CO; experiment: dehydration; format: biochemical, Escherichia coli; conditions: 5 mM MgCl2, Tris-HCl pH 7.9 or K-Hepes pH 7.5, 25 °C
[5] = substrate: O=C(O)[C@H](O)[C@H](O)[C@@H](O)[C@@H](O)CO; experiment: dehydration; format: biochemical, Escherichia coli; conditions: 5 mM MgCl2, Tris-HCl pH 7.9 or K-Hepes pH 7.5, 25 °C
[6] = molecular target: the molecule itself; experiment: crystal structure
[7] = substrate: C[C@H](O)[C@H](O)[C@@H](O)[C@@H](O)C(=O)O; experiment: dehydration; format: biochemical, Salmonella enterica; conditions: 5 mM MgCl2, Tris-HCl pH 7.9 or K-Hepes pH 7.5, 25 °C
[8] = substrate: O=C(O)[C@H](O)[C@H](O)[C@@H](O)CO; experiment: dehydration; format: biochemical, Salmonella enterica; conditions: 5 mM MgCl2, Tris-HCl pH 7.9 or K-Hepes pH 7.5, 25 °C
[9] = substrate: O=C(O)[C@H](O)[C@H](O)[C@@H](O)[C@@H](O)CO; experiment: dehydration; format: biochemical, Salmonella enterica; conditions: 5 mM MgCl2, Tris-HCl pH 7.9 or K-Hepes pH 7.5, 25 °C
[10] = molecular target: the molecule itself; experiment: crystal structure; remark: listed apart in the source

Q: `C[C@H](O)[C@H](O)[C@@H](O)[C@@H](O)C(=O)O` [L-rhamnonate] was tested. Which dehydration activity [1] did it give?
A: Each of these homologues catalyzes the RhamD reaction

Q: And the dehydration activity [2]?
A: Each of these homologues catalyzes the RhamD reaction

B1: L-rhamnonate dehydratase (RhamD) from Escherichia coli K-12 (enzyme, E. coli K-12)
chain: MTLPKIKQVRAWFTGGATAEKGAGGGDYHDQGANHWIDDHIATPMSKYRDYEQSRQSFGINVLGTLVVEVEAENGQTGFAVSTAGEMGCFIVEKHLNRFIEGKCVSDIKLIHDQMLSATLYYSGSGGLVMNTISCVDLALWDLFGKVVGLPVYKLLGGAVRDEIQFYATGARPDLAKEMGFIGGKMPTHWGPHDGDAGIRKDAAMVADMREKCGEDFWLMLDCWMSQDVNYATKLAHACAPYNLKWIEECLPPQQYESYRELKRNAPVGMMVTSGEHHGTLQSFRTLSETGIDIMQPDVGWCGGLTTLVEIAAIAKSRGQLVVPHGSSVYSHHAVITFTNTPFSEFLMTSPDCSTMRPQFDPILLNEPVPVNGRIHKSVLDKPGFGVELNRDCNLKRPYSH
Q: Which Km [3] does the source give for B1 here?
A: 150 ± 70 µM

Q: And the kcat [3]?
A: 3.2 ± 0.2 s⁻¹

Q: What about the kcat/Km [3] of the same molecule?
A: 21000 M⁻¹ s⁻¹

Q: And the Km [4]?
A: 2000 ± 300 µM

Q: What about the kcat [4] of the same molecule?
A: 0.6 ± 0.03 s⁻¹

Q: What about the kcat/Km [4] of the same molecule?
A: 300 M⁻¹ s⁻¹

Q: What about the Km [5] of the same molecule?
A: 150 ± 60 µM

Q: What about the kcat [5] of the same molecule?
A: 0.2 ± 0.1 s⁻¹

Q: What about the kcat/Km [5] of the same molecule?
A: 1300 M⁻¹ s⁻¹

Q: What about the “stoichiometry N” value [6] of the same molecule?
A: 8

B2: stRhamD (RhamD from S. typhimurium LT2) (Salmonella enterica subsp. enterica serovar Typhimurium str. LT2) (protein)
chain: MENIMTLPKIKHVRAWFIGGATAEKGAGGGDYHDQGGNHWIDDHIATPMSKYRDYEQSRQSFGINVLGTLIVEVEAENRQTGFAVSTAGEMGCFIVEKHLNRFIEGKCVSDIKLIHDQMLGATMYYSGSGGLVMNTISCVDLALWDLFGKVVGLPVYKLLGGAVRDEIQFYATGARPDLAKEMGFIGGKMPTHWGPHDGDAGIRKDAAMVADMREKCGPDFWLMLDCWMSQDVNYATKLAHACAPFNLKWIEECLPPQQYEGYRELKRNAPAGMMVTSGEHHGTLQSFRTLAETGIDIMQPDVGWCGGLTTLVEIAALAKSRGQLVVPHGSSVYSHHAVITFTNTPFSEFLMTSPDCSTLRPQFDPILLDEPVPVNGRIHKSVLDKPGFGVELNRDCHLKRPYSH
Q: Which results are given for B2?
A: Km [7]: 250 ± 80 µM; kcat [7]: 3.9 ± 1.6 s⁻¹; kcat/Km [7]: 16000 M⁻¹ s⁻¹; Km [8]: 1600 ± 1200 µM; kcat [8]: 0.05 ± 0.03 s⁻¹; kcat/Km [8]: 30 M⁻¹ s⁻¹; Km [9]: 60 ± 40 µM; kcat [9]: 0.1 ± 0.06 s⁻¹; kcat/Km [9]: 1700 M⁻¹ s⁻¹

B3: YfaW / ecRhamD (RhamD from E. coli K-12) (Escherichia coli K-12; H277N) (protein)
chain: MTLPKIKQVRAWFTGGATAEKGAGGGDYHDQGANHWIDDHIATPMSKYRDYEQSRQSFGINVLGTLVVEVEAENGQTGFAVSTAGEMGCFIVEKHLNRFIEGKCVSDIKLIHDQMLSATLYYSGSGGLVMNTISCVDLALWDLFGKVVGLPVYKLLGGAVRDEIQFYATGARPDLAKEMGFIGGKMPTHWGPHDGDAGIRKDAAMVADMREKCGEDFWLMLDCWMSQDVNYATKLAHACAPYNLKWIEECLPPQQYESYRELKRNAPVGMMVTSGENHGTLQSFRTLSETGIDIMQPDVGWCGGLTTLVEIAAIAKSRGQLVVPHGSSVYSHHAVITFTNTPFSEFLMTSPDCSTMRPQFDPILLNEPVPVNGRIHKSVLDKPGFGVELNRDCNLKRPYSH
Q: Which Km [3] does the source give for B3 here?
A: 8800 ± 900 µM

Q: What about the kcat [3] of the same molecule?
A: 0.09 ± 0.01 s⁻¹

Q: What about the kcat/Km [3] of the same molecule?
A: 10 M⁻¹ s⁻¹

B4: YfaW / ecRhamD (RhamD from E. coli K-12) (Escherichia coli K-12; H325N) (protein)
chain: MTLPKIKQVRAWFTGGATAEKGAGGGDYHDQGANHWIDDHIATPMSKYRDYEQSRQSFGINVLGTLVVEVEAENGQTGFAVSTAGEMGCFIVEKHLNRFIEGKCVSDIKLIHDQMLSATLYYSGSGGLVMNTISCVDLALWDLFGKVVGLPVYKLLGGAVRDEIQFYATGARPDLAKEMGFIGGKMPTHWGPHDGDAGIRKDAAMVADMREKCGEDFWLMLDCWMSQDVNYATKLAHACAPYNLKWIEECLPPQQYESYRELKRNAPVGMMVTSGEHHGTLQSFRTLSETGIDIMQPDVGWCGGLTTLVEIAAIAKSRGQLVVPNGSSVYSHHAVITFTNTPFSEFLMTSPDCSTMRPQFDPILLNEPVPVNGRIHKSVLDKPGFGVELNRDCNLKRPYSH
Q: Which Km [3] does the source give for B4 here?
A: 300 ± 30 µM

Q: What about the kcat [3] of the same molecule?
A: 0.0005 ± 0.0001 s⁻¹

Q: And the kcat/Km [3]?
A: 1.6 M⁻¹ s⁻¹

B5: L-rhamnonate dehydratase (RhamD) from Salmonella typhimurium LT2 (enzyme)
chain: ENIMTLPKIKHVRAWFIGGATAEKGAGGGDYHDQGGNHWIDDHIATPMSKYRDYEQSRQSFGINVLGTLIVEVEAENRQTGFAVSTAGEMGCFIVEKHLNRFIEGKCVSDIKLIHDQMLGATMYYSGSGGLVMNTISCVDLALWDLFGKVVGLPVYKLLGGAVRDEIQFYATGARPDLAKEMGFIGGKMPTHWGPHDGDAGIRKDAAMVADMREKCGPDFWLMLDCWMSQDVNYATKLAHACAPFNLKWIEECLPPQQYEGYRELKRNAPAGMMVTSGEHHGTLQSFRTLAETGIDIMQPDVGWCGGLTTLVEIAALAKSRGQLVVPHGSSVYSHHAVITFTNTPFSEFLMTSPDCSTLRPQFDPILLDEPVPVNGRIHKSVLDKPGFGVELNRDCHLKRPYSH
Q: How did the “stoichiometry N” value [10] turn out when B5 was run?
A: 8

From publication PMC2562705 (Biochemistry, 2008)
